This assay addresses T1, GST-MPSR1 (Misfolded Protein Sensing RING E3 ligase 1) (Arabidopsis thaliana, UniProt Q9LQX2 1-204).
T1 sequence (looked up): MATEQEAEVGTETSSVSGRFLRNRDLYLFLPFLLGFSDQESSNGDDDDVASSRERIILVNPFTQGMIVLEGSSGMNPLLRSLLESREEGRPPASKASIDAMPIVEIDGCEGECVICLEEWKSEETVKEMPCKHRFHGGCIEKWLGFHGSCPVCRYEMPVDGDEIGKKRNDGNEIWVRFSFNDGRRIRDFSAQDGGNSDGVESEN
Description: pull-down.

B1: His-MPSR1-DN (enzyme, Arabidopsis thaliana, UniProt Q9LQX2 1-204, looked up)
chain: MATEQEAEVGTETSSVSGRFLRNRDLYLFLPFLLGFSDQESSNGDDDDVASSRERIILVNPFTQGMIVLEGSSGMNPLLRSLLESREEGRPPASKASIDAMPIVEIDGCEGECVICLEEWKSEETVKEMPCKHRFHGGCIEKWLGFHGSCPVSRYEMPVDGDEIGKKRNDGNEIWVRFSFNDGRRIRDFSAQDGGNSDGVESEN
Take B1: the binding result is “binds”.

Values taken from paper PMC5699081 (Proceedings of the National Academy of Sciences of the …, 2017).
